These results are taken from patent publication US7087420B1, “Microbial β-glucuronidase genes, gene products and uses thereof” (Cambia, priority 1997, dated 2006).

Substitutions are numbered along the chain they refer to.

Type in all cases: cell-based
The subject of one experiment is E. coli. The experiment is described as follows: GUS activity of transfectants with expression vectors, E. coli host. More on the design: key: all tested transfectants exhibit GUS activity (indicated by a +). As to conditions: No SP (signal peptide). The protocol:
(§1) A series of expression vector constructs of three different GUS genes, E. coli GUS, Staphylococcus GUS, and the AO version of codon-optimized Staphylococcus GUS, are prepared and tested for enzymatic activity in E. coli, yeast, and plants (rice, Millin variety). […] The E. coli vector contains a sequence encoding a pelB signal peptide, the yeast vectors contain a sequence encoding either an invertase or Mat alpha signal peptide, and the plant vectors contain a sequence encoding either a glycine-rich protein (GRP) or extensin signal peptide.
(§2) The GUS genes are cloned into each of these vectors using standard recombinant techniques of isolation of a GUS-gene containing fragment and ligation into an appropriately restricted vector. The recombinant vectors are then transfected into the appropriate host and transfectants are tested for GUS activity.
(§3) Moreover, similar results are obtained regardless of the presence or absence of a signal peptide.

For the next experiment, the system named is yeast. The experiment is described as follows: GUS activity of transfectants with expression vectors, yeast host. More on the design: key: all tested transfectants exhibit GUS activity (indicated by a +). The protocol: as §1, §2, §3
Experiment [1] relates to plants (rice, Millin variety). The experiment is described as follows: GUS activity of transfectants with expression vectors, plant host. More on the design: key: all tested transfectants exhibit GUS activity (indicated by a +). The protocol: as §1, §2, §3
Another experiment deals with KW1 cells. The experiment in a line: Cellular localization: GUS activity in periplasm fraction, β-gal activity subtracted. As to conditions: percent of total activity in periplasm fraction, expressed in E. coli, β-gal background subtracted. From the text: Secretion index maybe calculated as the percentage of total GUS activity in periplasm or other extracellular environment less the percentage of total β-galactosidase activity found in the same extracellular environment.
Secretion of the enzyme may be verified by assaying for GUS activity in the extracellular environment. If the cells secreting GUS are gram-positive bacteria, yeasts, molds, plants, or other organisms with cell walls, activity may be assayed in the culture medium and in a cell extract, however, the protein may not be transported through the cell wall. Thus, if no or low activity of a secreted form of GUS is found in the culture medium, protoplasts made by osmotic shock or enzymatic digestion of the cell wall or other suitable procedure and the supernatant are assayed for GUS activity. […]
Cellular fractions (e.g., periplasm, spheroplast, supernatant, etc.) are prepared from KW1 cells transformed with pRAJa17.1 or a subfragment that contains the GUS gene and from E. coli cells that express β-glucuronidase. GUS activity and β-galactosidase (β-gal) activity is determined for each fraction. The percent of total activity in the periplasm fraction for GUS and β-gal (a non-secreted protein) are calculated; the amount of β-gal activity is considered background and thus is subtracted from the amount of β-glucuronidase activity. […]

The next experiment has as its system KW1. The experiment in a line: X-GlcA staining of low-cysteine E. coli GUS muteins in KW1. As to conditions: pBS backbone in KW1, staining with X-GlcA. From the text: Single and multiple Cys muteins are constructed by site-directed mutagenesis techniques. Eight of the nine cysteine residues in E. coli GUS are changed to the corresponding residue found in human GUS based on alignment of the two protein sequences. One of the E. coli GUS cysteine residues, amino acid 463, aligns with a cysteine residue in human GUS and was not altered. The corresponding amino acids between E. coli GUS and human GUS are shown below.
The mutein GUS genes are cloned into a pBS backbone. The mutations are confirmed by diagnostic restriction site changes and by DNA sequence analysis. Recombinant vectors are transfected into KW1 and GUS activity assayed by staining with X-GlcA (5-bromo-4-chloro-3-indolyl-β-D-glucuronide).

B1: E. coli GUS: E. coli β-glucuronidase encoded by gusA, 603 amino acids, used as comparison standard (protein, UniProt P05804 1-603, looked up)
Beta-glucuronidase: MLRPVETPTREIKKLDGLWAFSLDRENCGIDQRWWESALQESRAIAVPGSFNDQFADADIRNYAGNVWYQREVFIPKGWAGQRIVLRFDAVTHYGKVWVNNQEVMEHQGGYTPFEADVTPYVIAGKSVRITVCVNNELNWQTIPPGMVITDENGKKKQSYFHDFFNYAGIHRSVMLYTTPNTWVDDITVVTHVAQDCNHASVDWQVVANGDVSVELRDADQQVVATGQGTSGTLQVVNPHLWQPGEGYLYELCVTAKSQTECDIYPLRVGIRSVAVKGEQFLINHKPFYFTGFGRHEDADLRGKGFDNVLMVHDHALMDWIGANSYRTSHYPYAEEMLDWADEHGIVVIDETAAVGFNLSLGIGFEAGNKPKELYSEEAVNGETQQAHLQAIKELIARDKNHPSVVMWSIANEPDTRPQGAREYFAPLAEATRKLDPTRPITCVNVMFCDAHTDTISDLFDVLCLNRYYGWYVQSGDLETAEKVLEKELLAWQEKLHQPIIITEYGVDTLAGLHSMYTDMWSEEYQCAWLDMYHRVFDRVSAVVGEQVWNFADFATSQGILRVGGNKKGIFTRDRKPKSAAFLLQKRWTGMNFGEKPQQGGKQ
Take B1: the GUS activity result (in the experiment with E. coli; in the experiment on yeast (Invertase signal peptide); with yeast (Mat α signal peptide); with yeast (No SP); in experiment [1] (Extensin signal peptide); in experiment [1] (GRP signal peptide)) was “+” in each case. The GUS activity result in experiment [1] (No SP) is on record as “+”. For the same molecule, the “GUS activity found in the periplasm” value in the experiment on KW1 cells was “less than 10%”.

B2: D, E: E. coli GUS mutein, Cys 253 to Glu and Cys 262 to Ser (protein, UniProt P05804 1-603, looked up, variant C253E C262S)
Beta-glucuronidase: B1 Beta-glucuronidase with C253E, C262S
For B2, the GUS activity result in the experiment with KW1 is on record as “Yes”.
